Patent US20190112340A1
pKd: −log10 of the molar value.

Tests used:
[1] = target: RSV F DS-Cav1 (human RSV subtype A (strain A2)) (UniProt P03420); experiment: BLI (Octet), F on Ni-NTA tips, Fab in solution
[2] = target: RSV F sc9 DS-Cav1 (human RSV subtype A (strain A2)); experiment: BLI (Octet), F on Ni-NTA tips, Fab in solution
[3] = target: sc10 DS-Cav1; experiment: BLI (Octet), F on Ni-NTA tips, Fab in solution
[4] = target: sc9-10 A DS-Cav1 A149C, Y458C; experiment: BLI (Octet), F on Ni-NTA tips, Fab in solution
[5] = target: sc9-10 DS-Cav1 A149C, Y458C S46G-E92D-S215P-K465Q (A2); experiment: BLI (Octet), F on Ni-NTA tips, Fab in solution
[6] = target: sc9-10 DS-Cav1 A149C, Y458C S46G-N67I-E92D-S215P-K465Q (A2); experiment: BLI (Octet), F on Ni-NTA tips, Fab in solution
[7] = target: sc9-10 DS-Cav1 A149C, Y458C S46G-S215P-K465Q (A2); experiment: BLI (Octet), F on Ni-NTA tips, Fab in solution
[8] = target: sc9-10 DS-Cav1 N183GC, N428C S46G-N67I-E92D-S215P-K465Q (A2); experiment: BLI (Octet), F on Ni-NTA tips, Fab in solution
[9] = target: sc9-10 DS-Cav1 N183GC,N428C; experiment: BLI (Octet), F on Ni-NTA tips, Fab in solution
[10] = target: RSV F DS-Cav1 (human RSV subtype A (strain A2)) (UniProt P03420); experiment: BLI (Octet), D25 Fab binding after/before stress
[11] = target: RSV F sc9 DS-Cav1 (human RSV subtype A (strain A2)); experiment: BLI (Octet), D25 Fab binding after/before stress
[12] = target: sc10 DS-Cav1; experiment: BLI (Octet), D25 Fab binding after/before stress
[13] = target: sc9-10 A DS-Cav1 A149C, Y458C; experiment: BLI (Octet), D25 Fab binding after/before stress
[14] = target: sc9-10 DS-Cav1 A149C, Y458C S46G-E92D-S215P-K465Q (A2); experiment: BLI (Octet), D25 Fab binding after/before stress
[15] = target: sc9-10 DS-Cav1 A149C, Y458C S46G-N67I-E92D-S215P-K465Q (A2); experiment: BLI (Octet), D25 Fab binding after/before stress
[16] = target: sc9-10 DS-Cav1 A149C, Y458C S46G-S215P-K465Q (A2); experiment: BLI (Octet), D25 Fab binding after/before stress
[17] = target: sc9-10 DS-Cav1 N183GC, N428C S46G-N67I-E92D-S215P-K465Q (A2); experiment: BLI (Octet), D25 Fab binding after/before stress
[18] = target: sc9-10 DS-Cav1 N183GC,N428C; experiment: BLI (Octet), D25 Fab binding after/before stress
[19] = target: RSV F sc9 DS-Cav1 (human RSV subtype A (strain A2)); experiment: D25 binding to heat-treated protein relative to the untreated protein (physical stability, FIG. 1E)
[20] = target: RSV F sc9-10 DS-Cav1 (human RSV subtype A (strain A2)); experiment: BLI (Octet), F on Ni-NTA tips, Fab in solution
[21] = target: RSV F sc9-41 DS-Cav1 (human RSV subtype A (strain A2)) (UniProt P03420); experiment: BLI (Octet), F on Ni-NTA tips, Fab in solution
[22] = target: RSV F sc9-42 DS-Cav1 (human RSV subtype A (strain A2)) (UniProt P03420); experiment: BLI (Octet), F on Ni-NTA tips, Fab in solution
[23] = target: RSV F sc9-9 DS-Cav1 (human RSV subtype A (strain A2)) (UniProt P03420); experiment: BLI (Octet), F on Ni-NTA tips, Fab in solution
[24] = target: sc11 DS-Cav1; experiment: BLI (Octet), F on Ni-NTA tips, Fab in solution
[25] = target: sc4 DS-Cav1; experiment: BLI (Octet), F on Ni-NTA tips, Fab in solution
[26] = target: sc8 DS-Cav1; experiment: BLI (Octet), F on Ni-NTA tips, Fab in solution
[27] = target: sc9 DS-Cav1-105Q; experiment: BLI (Octet), F on Ni-NTA tips, Fab in solution
[28] = target: sc9-10 DS-Cav1 Q98C, Q361C L95M-I221M-R429K (B18537); experiment: BLI (Octet), F on Ni-NTA tips, Fab in solution
[29] = target: sc9-10 DS-Cav1 Q98C, Q361C S46G-E92D-L95M-S215P-I217P-I221M-R429K-K465Q (Long (VR26)); experiment: BLI (Octet), F on Ni-NTA tips, Fab in solution
[30] = target: sc9-19 DS-Cav1; experiment: BLI (Octet), F on Ni-NTA tips, Fab in solution
[31] = target: sc9-24 DS-Cav1; experiment: BLI (Octet), F on Ni-NTA tips, Fab in solution
[32] = target: bRSV F 391-2 DS-Cav1 (bovine RSV, strain 391-2) (UniProt P22167); experiment: Fab binding to purified bRSV F trimer (Octet BLI as in Example 1)
[33] = target: bRSV F 391-2 post-F (bovine RSV, strain 391-2) (UniProt P22167); experiment: as above
[34] = target: bRSV F 391-2 post-F (bovine RSV, strain 391-2) (UniProt P22167); experiment: Motavizumab binding to stressed post-F protein as a fraction of the untreated protein (physical stability)

D25 Fab gave a pKd [1] of 9.82, a pKd [2] of 9.10 and a pKd [3] of 9.52. It also gave a pKd [4] of 9.70, a pKd [5] of 9.70 and a pKd [6] of 9.22. It also gave a pKd [7] of 10.00, a pKd [8] of 9.70 and a pKd [9] of 9.70. The fractional D25 reactivity, 50 °C [10] was 0.9, the fractional D25 reactivity, 70 °C [10] was 0 and the fractional D25 reactivity, freeze-thaw [10] was 0.1. It also gave a fractional D25 reactivity, osmolality 10 mM [10] of 0.9, a fractional D25 reactivity, osmolality 3000 mM [10] of 1 and a fractional D25 reactivity, pH 3.5 [10] of 0.8. The fractional D25 reactivity, pH 10.0 [10] was 0.5, the fractional D25 reactivity, 50 °C [11] was 0.4 and the fractional D25 reactivity, 70 °C [11] was 0.4. For the same substance, the fractional D25 reactivity, freeze-thaw [11] was 0.2, the fractional D25 reactivity, osmolality 10 mM [11] was 0.1 and the fractional D25 reactivity, osmolality 3000 mM [11] was 0.1. The fractional D25 reactivity, pH 3.5 [11] was 0.2, the fractional D25 reactivity, pH 10.0 [11] was 0.1 and the fractional D25 reactivity, 50 °C [12] was 0.3. The fractional D25 reactivity, 70 °C [12] was 0.3, the fractional D25 reactivity, freeze-thaw [12] was 0.1 and the fractional D25 reactivity, osmolality 10 mM [12] was 0.1. For the same substance, the fractional D25 reactivity, osmolality 3000 mM [12] was 0.1, the fractional D25 reactivity, pH 3.5 [12] was 0.2 and the fractional D25 reactivity, pH 10.0 [12] was 0.2. The fractional D25 reactivity, 10 cycles freeze/thaw with 5% glycerol [13] was 0.6, the fractional D25 reactivity, 10 cycles freeze/thaw with 10% glycerol [13] was 0.9 and the fractional D25 reactivity, 50 °C [13] was 1. For the same substance, the fractional D25 reactivity, 70 °C [13] was 0.8, the fractional D25 reactivity, freeze-thaw [13] was 0.3 and the fractional D25 reactivity, osmolality 10 mM [13] was 0.7. The fractional D25 reactivity, osmolality 3000 mM [13] was 0.6, the fractional D25 reactivity, pH 3.5 [13] was 2.3 and the fractional D25 reactivity, pH 10.0 [13] was 0.7. The fractional D25 reactivity, 50 °C [14] was 0.9, the fractional D25 reactivity, 70 °C [14] was 0.8 and the fractional D25 reactivity, freeze-thaw [14] was 0.2. The fractional D25 reactivity, osmolality 10 mM [14] was 0.5, the fractional D25 reactivity, osmolality 3000 mM [14] was 0.6 and the fractional D25 reactivity, pH 3.5 [14] was 3.8. The fractional D25 reactivity, pH 10.0 [14] was 0.6, the fractional D25 reactivity, 50 °C [15] was 1 and the fractional D25 reactivity, 70 °C [15] was 0.9. For the same substance, the fractional D25 reactivity, freeze-thaw [15] was 0.1, the fractional D25 reactivity, osmolality 10 mM [15] was 0.8 and the fractional D25 reactivity, osmolality 3000 mM [15] was 0.7. It also gave a fractional D25 reactivity, pH 10.0 [15] of 0.7, a fractional D25 reactivity, 50 °C [16] of 1 and a fractional D25 reactivity, 70 °C [16] of 0.9. It also gave a fractional D25 reactivity, freeze-thaw [16] of 0.1, a fractional D25 reactivity, osmolality 10 mM [16] of 0.7 and a fractional D25 reactivity, osmolality 3000 mM [16] of 0.8. It also gave a fractional D25 reactivity, pH 10.0 [16] of 0.4, a fractional D25 reactivity, 50 °C [17] of 1 and a fractional D25 reactivity, 70 °C [17] of 0.9. The fractional D25 reactivity, freeze-thaw [17] was 0.2, the fractional D25 reactivity, osmolality 10 mM [17] was 0.8 and the fractional D25 reactivity, osmolality 3000 mM [17] was 0.7. The fractional D25 reactivity, pH 10.0 [17] was 0.5, the fractional D25 reactivity, 10 cycles freeze/thaw with 5% glycerol [18] was 0.6 and the fractional D25 reactivity, 10 cycles freeze/thaw with 10% glycerol [18] was 0.7. The fractional D25 reactivity, 50 °C [18] was 1, the fractional D25 reactivity, 70 °C [18] was 0.5 and the fractional D25 reactivity, freeze-thaw [18] was 0.3. It also gave a fractional D25 reactivity, osmolality 10 mM [18] of 0.9, a fractional D25 reactivity, osmolality 3000 mM [18] of 0.4 and a fractional D25 reactivity, pH 3.5 [18] of 2.6. It also gave a fractional D25 reactivity, pH 10.0 [18] of 0.7 and a percent still active (site Ø retained) after 1 h at 70 °C [19] of 39%.
Motavizumab Fab showed a pKd [1] of 10.40, a pKd [2] of 7.86 and a pKd [20] of 8.01. The pKd [21] was 10.40, the pKd [22] was 8.23 and the pKd [23] was 9.00. The pKd [3] was 7.65, the pKd [24] was 7.53 and the pKd [25] was 8.12. For the same substance, the pKd [26] was over 11.00, the pKd [27] was 7.79 and the pKd [4] was 9.40. It also gave a pKd [5] of 9.22, a pKd [6] of 10.00 and a pKd [7] of 9.40. The pKd [8] was 9.22, the pKd [9] was 9.52 and the pKd [28] was 9.70. For the same substance, the pKd [29] was 7.95, the pKd [30] was 7.78 and the pKd [31] was 7.82. The pKd [32] was 9.10, the pKd [33] was 9.22 and the fractional antibody reactivity after 10 cycles of freeze-thaw [34] was 1. It also gave a fractional antibody reactivity after 50 °C [34] of 1, a fractional antibody reactivity after 70 °C [34] of 1 and a fractional antibody reactivity after osmolarity 10 mM [34] of 0.9. The fractional antibody reactivity after osmolarity 3000 mM [34] was 0.6, the fractional antibody reactivity after pH 3.5 [34] was 0.8 and the fractional antibody reactivity after pH 10.0 [34] was 1.1.
